These substances were tested against … (SEQ. ID. No. 74) (assay: competition EIA, 5 ug HBcAg peptide + 5 ug SEQ 74 peptide on coated HBcAg (competitor); OD of bound SEQ 74 peptide).

Substance | OD at 490 nm
HBcAg peptide … (residues 151-170, Sequence ID 110) | 0.732 OD
HBcAg peptide … (residues 161-183, Sequence ID 111) | 0.678 OD
HBcAg peptide … (residues 141-160, Sequence ID 109) | 0.811 OD
HBcAg peptide … (residues 121-140, Sequence ID 107) | 0.701 OD
HBcAg peptide … (residues 51-70, Sequence ID 100) | 0.646 OD
HBcAg peptide … (residues 111-131 as printed, Sequence ID 106) | 0.832 OD
